Key:
[1] = biological target: T1, Strep-EPRS (Strep-tagged full-length glutamyl-prolyl-tRNA synthetase, wild type) (Homo sapiens (Human), UniProt P07814 1-1512); assay: Strep precipitation of 293T lysates expressing Strep-EPRS and forms of GST-PCBP2, anti-GST immunoblot
T1 construct: Expressed in HEK293T cells and pulled down with Strep-Tactin; Mass spectrometry found phospho-Ser886, and phospho-Ser990 after PR8 infection; also called Strep-EPRS WT; not shown: Strep tag

[2] = biological target: T1, Strep-EPRS (Strep-tagged full-length …); assay: Strep-EPRS complexes from PR8-infected 293T cells, mass spectrometry
[3] = biological target: T2, EPRS, endogenous protein of U937 cells (human, UniProt P07814 1-1512, phospho-Ser990 induced by PR8 infection; phospho-Ser886 also detected); assay: endogenous co-IP with anti-EPRS antibody from PR8-infected U937 cells, anti-GAPDH immunoblot
T2 construct: Endogenous protein immunoprecipitated with anti-EPRS antibody; also called glutamyl-prolyl-tRNA synthetase

[4] = biological target: T3, Strep-tagged EPRS mono-phosphomimetic S990D (Homo sapiens (Human), UniProt P07814 1-1512); assay: Strep precipitation from 293T cells, immunoblot
T3 construct: Expressed in 293T cells; also called EPRS S990D; not shown: Strep tag

[5] = biological target: T4, EPRS, endogenous protein of RAW264.7 cells (UniProt Q8CGC7 1-1512, phospho-Ser990 induced by PR8 infection); assay: endogenous immunoprecipitation with anti-PCBP2 antibody, PR8-infected RAW264.7 cells
T4 construct: Endogenous protein in cell lysates; The mouse origin is inferred from the cell line

[6] = biological target: T5, MAVS, endogenous protein of RAW264.7 cells (UniProt Q8VCF0 1-503); assay: as above
T5 sequence (looked up): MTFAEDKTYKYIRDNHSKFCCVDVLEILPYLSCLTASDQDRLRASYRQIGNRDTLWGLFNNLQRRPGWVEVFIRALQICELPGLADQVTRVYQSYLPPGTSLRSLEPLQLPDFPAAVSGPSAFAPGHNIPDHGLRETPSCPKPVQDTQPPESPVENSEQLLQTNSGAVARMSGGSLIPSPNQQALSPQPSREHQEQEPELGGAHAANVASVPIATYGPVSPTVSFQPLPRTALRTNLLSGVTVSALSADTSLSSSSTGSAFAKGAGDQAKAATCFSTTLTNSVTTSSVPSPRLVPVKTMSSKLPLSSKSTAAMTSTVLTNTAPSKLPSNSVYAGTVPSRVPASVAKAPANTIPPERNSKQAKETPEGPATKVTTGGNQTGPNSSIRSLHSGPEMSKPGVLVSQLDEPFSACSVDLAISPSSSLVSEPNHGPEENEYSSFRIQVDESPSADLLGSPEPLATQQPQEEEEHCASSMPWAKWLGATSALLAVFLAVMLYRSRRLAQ

[7] = biological target: T6, His-tagged EPRS (aa 1-168; GST-like domain alone), purified from E. coli (Homo sapiens (Human), UniProt P07814 1-168); assay: in vitro His-tag (Ni-NTA) precipitation with purified proteins
T6 construct: not shown: hexahistidine tag
T6 sequence: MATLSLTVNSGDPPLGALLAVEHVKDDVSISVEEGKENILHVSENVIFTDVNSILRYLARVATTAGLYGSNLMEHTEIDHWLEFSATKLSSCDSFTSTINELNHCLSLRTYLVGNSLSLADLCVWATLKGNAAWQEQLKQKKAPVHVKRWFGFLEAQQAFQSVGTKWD

[8] = biological target: T7, His-tagged EPRS (aa 1-196), purified from E. coli (Homo sapiens (Human), UniProt P07814 1-196); assay: in vitro His-tag (Ni-NTA) precipitation with purified proteins, Coomassie
T7 construct: also called GST and L1 regions of EPRS; not shown: hexahistidine tag
T7 sequence: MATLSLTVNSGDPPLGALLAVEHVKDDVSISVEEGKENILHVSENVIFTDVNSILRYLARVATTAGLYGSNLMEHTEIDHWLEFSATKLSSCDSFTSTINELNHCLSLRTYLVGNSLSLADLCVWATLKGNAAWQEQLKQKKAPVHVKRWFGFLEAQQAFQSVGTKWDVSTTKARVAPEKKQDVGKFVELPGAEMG

[9] = biological target: T2, EPRS, endogenous protein of U937 cells; assay: endogenous co-IP with anti-EPRS antibody, PR8-infected U937 cells
[10] = biological target: T8, MAVS-FLAG (mitochondrial antiviral-signaling protein expressed in 293T cells) (UniProt Q7Z434 1-540); assay: anti-FLAG co-IP of 293T lysates expressing MAVS and forms of GST-PCBP2, anti-GST immunoblot
T8 construct: also called exogenous MAVS; not shown: FLAG tag
T8 sequence (Q7Z434 whole entry): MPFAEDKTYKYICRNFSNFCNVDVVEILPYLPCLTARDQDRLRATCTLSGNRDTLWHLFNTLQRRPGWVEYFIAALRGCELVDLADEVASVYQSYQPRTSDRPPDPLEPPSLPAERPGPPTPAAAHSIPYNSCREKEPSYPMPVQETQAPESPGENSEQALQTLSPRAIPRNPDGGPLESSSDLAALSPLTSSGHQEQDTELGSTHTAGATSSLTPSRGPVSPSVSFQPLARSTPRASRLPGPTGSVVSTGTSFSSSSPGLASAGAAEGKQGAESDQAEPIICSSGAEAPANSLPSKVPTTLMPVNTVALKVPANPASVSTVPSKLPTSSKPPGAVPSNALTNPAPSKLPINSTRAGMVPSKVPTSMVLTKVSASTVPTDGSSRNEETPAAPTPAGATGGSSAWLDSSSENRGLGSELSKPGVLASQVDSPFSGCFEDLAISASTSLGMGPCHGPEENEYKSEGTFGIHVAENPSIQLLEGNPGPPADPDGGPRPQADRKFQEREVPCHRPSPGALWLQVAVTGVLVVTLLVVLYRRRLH

T4 sequence (Q8CGC7 whole entry): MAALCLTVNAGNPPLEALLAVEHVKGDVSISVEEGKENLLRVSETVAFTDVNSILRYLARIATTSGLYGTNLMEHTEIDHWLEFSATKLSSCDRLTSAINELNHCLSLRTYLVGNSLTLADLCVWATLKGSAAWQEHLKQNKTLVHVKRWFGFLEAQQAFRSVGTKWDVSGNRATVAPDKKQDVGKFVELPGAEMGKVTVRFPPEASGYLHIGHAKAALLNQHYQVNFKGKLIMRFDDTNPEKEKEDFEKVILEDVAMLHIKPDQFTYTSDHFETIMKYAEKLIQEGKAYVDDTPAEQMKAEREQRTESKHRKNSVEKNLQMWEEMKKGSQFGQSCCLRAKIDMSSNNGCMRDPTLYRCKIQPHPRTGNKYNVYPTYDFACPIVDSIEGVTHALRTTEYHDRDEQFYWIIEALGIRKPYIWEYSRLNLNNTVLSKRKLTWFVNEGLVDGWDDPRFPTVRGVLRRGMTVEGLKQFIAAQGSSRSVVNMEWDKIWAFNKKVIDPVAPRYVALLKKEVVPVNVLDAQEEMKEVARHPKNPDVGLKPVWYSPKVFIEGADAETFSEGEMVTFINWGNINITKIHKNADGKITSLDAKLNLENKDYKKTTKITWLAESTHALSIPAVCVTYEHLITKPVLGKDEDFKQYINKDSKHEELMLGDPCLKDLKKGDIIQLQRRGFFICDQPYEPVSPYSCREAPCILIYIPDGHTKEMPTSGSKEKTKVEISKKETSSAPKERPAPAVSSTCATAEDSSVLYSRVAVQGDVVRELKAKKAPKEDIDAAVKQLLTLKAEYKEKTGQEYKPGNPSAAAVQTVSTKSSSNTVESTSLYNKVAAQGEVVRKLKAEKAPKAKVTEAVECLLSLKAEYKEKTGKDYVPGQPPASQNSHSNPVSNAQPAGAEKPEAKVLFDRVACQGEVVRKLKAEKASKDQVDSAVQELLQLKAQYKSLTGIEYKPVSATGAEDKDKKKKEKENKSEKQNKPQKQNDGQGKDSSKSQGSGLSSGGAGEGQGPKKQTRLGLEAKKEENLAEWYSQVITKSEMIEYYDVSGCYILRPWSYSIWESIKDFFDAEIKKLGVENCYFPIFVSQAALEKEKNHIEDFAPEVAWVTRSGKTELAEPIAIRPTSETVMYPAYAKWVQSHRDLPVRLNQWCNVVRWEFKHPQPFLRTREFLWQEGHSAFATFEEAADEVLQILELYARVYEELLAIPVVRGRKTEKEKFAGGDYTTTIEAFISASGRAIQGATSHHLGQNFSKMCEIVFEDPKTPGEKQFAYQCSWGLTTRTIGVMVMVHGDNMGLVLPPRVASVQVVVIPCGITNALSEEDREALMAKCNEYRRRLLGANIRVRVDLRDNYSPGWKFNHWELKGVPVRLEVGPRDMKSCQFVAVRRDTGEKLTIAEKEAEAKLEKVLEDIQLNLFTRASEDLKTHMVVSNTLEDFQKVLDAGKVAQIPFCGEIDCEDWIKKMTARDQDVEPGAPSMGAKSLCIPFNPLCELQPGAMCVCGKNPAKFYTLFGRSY

B1: GST-PCBP2 linker region, expressed in 293T cells (other, UniProt Q15366 168-279, looked up)
chain: ETLSQSPPKGVTIPYRPKPSSSPVIFAGGQDRYSTGSDSASFPHTTPSMCLNPDLEGPPLEAYTIQGQYAIPQPDLTKLHQLAMQQSHFPMTHGNTGFSGIESSSPEVKGYW
notes: domain: linker region; not shown: GST tag
- binding result [1]: no binding

B2: GAPDH (glyceraldehyde-3-phosphate dehydrogenase), endogenous protein of human cells (U937, 293T) (enzyme)
chain: not shown
- binding result [2]: no binding
- binding result [3]: no binding

B3: MRS (methionyl-tRNA synthetase), endogenous protein of 293T cells (enzyme, UniProt P56192 1-900, looked up)
chain: MRLFVSDGVPGCLPVLAAAGRARGRAEVLISTVGPEDCVVPFLTRPKVPVLQLDSGNYLFSTSAICRYFFLLSGWEQDDLTNQWLEWEATELQPALSAALYYLVVQGKKGEDVLGSVRRALTHIDHSLSRQNCPFLAGETESLADIVLWGALYPLLQDPAYLPEELSALHSWFQTLSTQEPCQRAAETVLKQQGVLALRPYLQKQPQPSPAEGRAVTNEPEEEELATLSEEEIAMAVTAWEKGLESLPPLRPQQNPVLPVAGERNVLITSALPYVNNVPHLGNIIGCVLSADVFARYSRLRQWNTLYLCGTDEYGTATETKALEEGLTPQEICDKYHIIHADIYRWFNISFDIFGRTTTPQQTKITQDIFQQLLKRGFVLQDTVEQLRCEHCARFLADRFVEGVCPFCGYEEARGDQCDKCGKLINAVELKKPQCKVCRSCPVVQSSQHLFLDLPKLEKRLEEWLGRTLPGSDWTPNAQFITRSWLRDGLKPRCITRDLKWGTPVPLEGFEDKVFYVWFDATIGYLSITANYTDQWERWWKNPEQVDLYQFMAKDNVPFHSLVFPCSALGAEDNYTLVSHLIATEYLNYEDGKFSKSRGVGVFGDMAQDTGIPADIWRFYLLYIRPEGQDSAFSWTDLLLKNNSELLNNLGNFINRAGMFVSKFFGGYVPEMVLTPDDQRLLAHVTLELQHYHQLLEKVRIRDALRSILTISRHGNQYIQVNEPWKRIKGSEADRQRAGTVTGLAVNIAALLSVMLQPYMPTVSATIQAQLQLPPPACSILLTNFLCTLPAGHQIGTVSPLFQKLENDQIESLRQRFGGGQAKTSPKPAVVETVTTAKPQQIQALMDEVTKQGNIVRELKAQKADKNEVAAEVAKLLDLKKQLAVAEGKPPEAPKGKKKK
notes: 293T cells are a human line
- binding result [4]: no binding

B4: PCBP2, endogenous protein of RAW264.7 cells (other, UniProt Q61990 1-362, looked up)
chain: MDTGVIEGGLNVTLTIRLLMHGKEVGSIIGKKGESVKKMREESGARINISEGNCPERIITLAGPTNAIFKAFAMIIDKLEEDISSSMTNSTAASRPPVTLRLVVPASQCGSLIGKGGCKIKEIRESTGAQVQVAGDMLPNSTERAITIAGIPQSIIECVKQICVVMLESPPKGVTIPYRPKPSSSPVIFAGGQDRYSTGSDSASFPHTTPSMCLNPDLEGPPLEAYTIQGQYAIPQPDLTKLHQLAMQQSHFPMTHGNTGFSGIESSSPEVKGYWAGLDASAQTTSHELTIPNDLIGCIIGRQGAKINEIRQMSGAQIKIANPVEGSTDRQVTITGSAASISLAQYLINVRLSSETGGMGSS
notes: also called PBP2
- binding result [5]: binds
- binding result [6]: binds

B5: AIMP3 (ARS-interacting multifunctional protein 3), endogenous protein of human cells (U937, 293T) (other, UniProt O43324 2-174, looked up)
chain: AAAAELSLLEKSLGLSKGNKYSAQGERQIPVLQTNNGPSLTGLTTIAAHLVKQANKEYLLGSTAEEKAIVQQWLEYRVTQVDGHSSKNDIHTLLKDLNSYLEDKVYLTGYNFTLADILLYYGLHRFIVDLTVQEKEKYLNVSRWFCHIQHYPGIRQHLSSVVFIKNRLYTNSH
- binding result [4]: no binding

B6: GST-fused PCBP2 KH1 (aa 11-82), purified from E. coli (other, UniProt Q15366 11-82, looked up)
chain: NVTLTIRLLMHGKEVGSIIGKKGESVKKMREESGARINISEGNCPERIITLAGPTNAIFKAFAMIIDKLEED
notes: range 11-82; also called PCBP2 KH1 (aa 11-82) domain; not shown: GST
- binding result [7]: no binding
- binding result [8]: binds

B7: PCBP2, endogenous protein of human cells (293T, U937) (other, UniProt Q15366 1-365, looked up)
chain: MDTGVIEGGLNVTLTIRLLMHGKEVGSIIGKKGESVKKMREESGARINISEGNCPERIITLAGPTNAIFKAFAMIIDKLEEDISSSMTNSTAASRPPVTLRLVVPASQCGSLIGKGGCKIKEIRESTGAQVQVAGDMLPNSTERAITIAGIPQSIIECVKQICVVMLETLSQSPPKGVTIPYRPKPSSSPVIFAGGQDRYSTGSDSASFPHTTPSMCLNPDLEGPPLEAYTIQGQYAIPQPDLTKLHQLAMQQSHFPMTHGNTGFSGIESSSPEVKGYWGLDASAQTTSHELTIPNDLIGCIIGRQGAKINEIRQMSGAQIKIANPVEGSTDRQVTITGSAASISLAQYLINVRLSSETGGMGSS
notes: also called PBP2
- binding result [9]: binds

B8: GST-PCBP2 N-terminal KH1 domain (aa 1-81), expressed in 293T cells (other, UniProt Q15366 1-81, looked up)
chain: MDTGVIEGGLNVTLTIRLLMHGKEVGSIIGKKGESVKKMREESGARINISEGNCPERIITLAGPTNAIFKAFAMIIDKLEE
notes: range 1-81; also called PCBP2 KH1; not shown: GST tag
- binding result [1]: binds
- binding result [10]: binds
